US20250049930A1 (CEDARS SINAI MEDICAL CENTER, published 2025)
Primed or numbered codes have the meaning given here. PEG4′ = polyethylene glycol linker with 4 oxyethylene units

How the values were obtained:
[1] = biological target: T1, cereblon (E3 ubiquitin ligase); assay: SPR imaging (PlexArray HT), cereblon printed on chip; binary complex of cereblon and PF
T1 chain: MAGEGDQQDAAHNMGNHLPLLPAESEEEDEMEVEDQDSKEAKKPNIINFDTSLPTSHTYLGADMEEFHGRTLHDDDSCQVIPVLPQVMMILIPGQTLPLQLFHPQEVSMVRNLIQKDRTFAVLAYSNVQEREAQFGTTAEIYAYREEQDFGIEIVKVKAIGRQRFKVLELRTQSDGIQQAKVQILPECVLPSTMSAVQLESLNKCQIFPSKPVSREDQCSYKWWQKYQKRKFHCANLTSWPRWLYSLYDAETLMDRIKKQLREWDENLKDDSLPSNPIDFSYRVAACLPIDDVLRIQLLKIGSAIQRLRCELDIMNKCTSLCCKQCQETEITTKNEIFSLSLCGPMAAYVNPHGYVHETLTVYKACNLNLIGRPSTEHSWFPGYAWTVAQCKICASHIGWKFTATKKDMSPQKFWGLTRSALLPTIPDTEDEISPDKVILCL

[2] = biological target: T1, cereblon (E3 ubiquitin ligase); assay: SPR imaging (PlexArray HT), cereblon printed on chip; ternary complex of cereblon, FoxP3 and P-FoxP3 (recombinant FoxP3 present)

B1: Proteolysis-targeting chimera (PROTAC) targeting FoxP3 (Pomalidomide-PEG4-RDFQSFRKMWPFFAM) (peptide)
peptide: {pomalidomide-PEG4′}-RDFQSFRKMWPFFAM-OH
notes: Conjugate of the P60 peptide with the small molecule pomalidomide; also called P-FoxP3; PROTAC for FoxP3
B1 gave a Kd [1] of 987 nM and a Kd [2] of 434 nM.
